Usually EC50 stands for the concentration at which the effect is half-maximal. In general, Kd refers to the free concentration of one partner at which half of the binding sites on the other are occupied at equilibrium, for simple one-to-one binding. A high value points to lower affinity. By koff is commonly meant the first-order rate constant of dissociation. Low readings indicate a long-lived complex, high ones a short-lived complex. One may read the kon as the rate constant with which the complex forms. Read a low kon as slow association.

Assay [1] addresses T1, human GPC3 on cells (human, UniProt P51654 25-554).
T1 construct: whole, on cells; over-expressed on CHOK1 cells or endogenous on HEPG2, Hep3B and Huh-7 hepatocellular carcinoma cells; the cell line is named under assay; also called GPC3-CHOK1 cells; human GPC3 over-expressed CHOK1 cells
Put plainly: FACS, Huh-7 cells. How it is done:
Cell-based binding: FACS was used to evaluate the binding activity of 52H5D3B8, 52H5D3B8-6 # chimeric mAbs and GC33 antibody on human GPC3 over-expressed CHOK1 cells, Hep3B cells and Huh-7 cells.
Briefly, GPC3-CHOK1 cells, Hep3B cells or Huh-7 cells were firstly incubated with Fc blocking reagent at 4° C. for 15 mins. Cells were washed by FACS buffer and divided to each well with 3-fold serially diluted 52H5D3B8, 52H5D3B8-6 # chimeric mAbs or GC33 antibody starting at 30 μg/mL at 4° C. for 60 mins. Cells were washed by FACS buffer and fixed with 2% PFA at RT for 15 mins. […] Samples were washed twice with FACS buffer.

The target of assay [2] is T1, human GPC3 on cells. The experiment in a line: FACS, GPC3-CHOK1 cells. On the procedure: Briefly, GPC3-CHOK1 cells were firstly incubated with Fc blocking reagent at 4° C. for 15 mins. Cells were washed by FACS buffer and divided to each well with 3-fold serially diluted 52H5D3B8, 52H5D3B8-1 #, 52H5D3B8-2 #, 52H5D3B8-3 #, 52H5D3B8-4 #, 52H5D3B8-5 #, 52H5D3B8-6 #, 52H5D3B8-7 #, 52H5D3B8-8 #, 52H5D3B8-9 #, 52H5D3B8-10 #, 52H5D3B8-11 #, 52H5D3B8-12 #, 52H5D3B8-13 #, 52H5D3B8-14 # and 52H5D3B8-15# chimeric mAbs starting at 30 μg/mL at 4° C. for 60 mins. Cells were washed by FACS buffer and fixed with 2% PFA at RT for 15 mins. […] Samples were washed twice with FACS buffer.
Background: A flow cytometer gives signals particle by particle.

Assay [3] deals with T2, human GPC3-his tag protein (human, UniProt P51654 25-559, limits assumed).
T2 construct: recombinant soluble antigen used as analyte in all Biacore runs; also called recombinant GPC3 protein; rhGPC3-His; not shown: His tag
The experiment in a line: SPR Biacore 8K, mAb captured on CM5, GPC3-his dilution series. How it is done: The binding of the chimeric 52H5D3B8 mAb to human GPC3-his was tested with Biacore using a capture method. The 52H5D3B8 mAb was captured using CM5 sensor chip. A serial dilution of human GPC3-his tag protein was injected over captured antibody for 2 mins at a flow rate of 30 μl/min. The antigen was allowed to dissociate for 360 s. All the experiments were carried out on a Biacore 8K. Data analysis was carried out using Biacore 8K evaluation software.
(Surface plasmon resonance follows binding to a sensor surface in real time, without labels.)

B1: 52H5D3B8 chimeric mAb (antibody, V domains shown)
VH: QVQLQQSGAELVRPGASVKLSCKALGYTFTDYEMHWVKQTPVHGLEWIGAIHPGSGGTAYNQKFKGKATLTADKFSSTGYMELSSLTSEDSAVYYCTRFYSYAYWGQGTLVTVSA
VL: DVVMTQTPLSLPVSLGDQASISCRSSQSLVHSNGNTYLQWYLQKPGQSPKLLIYKVSNRFSGVPDRFSGSGSGTDFILKISRVEAEDLGVYFCSQSIHVPYTFGGGTKLEIK
notes: also called 52H5D3B8-VH+VL; chimeric 52H5D3B8 mAb
Consider B1, for which a half-maximal response in the assay with human GPC3 on cells [1] (EC50) required 0.0795 µg/mL. Also, the EC50 with human GPC3 on cells [2] is 0.0705 µg/mL. In assay [3], the affinity, expressed as Kd, was 0.843 nM; the koff was 0.000466 s⁻¹; the kon turned out to be 552000 M⁻¹ s⁻¹.

The values above are taken from patent publication US20240409663A1 (CONCEPT TO MEDICINE BIOTECH, published 2024).
